Assay results taken from PMC9145765, “Identification and Molecular Characterization of the Operon Required for L-Asparagine Utilization in Corynebacterium glutamicum” (Microorganisms, 2022).

Experiments:
[1] = test system: T1, AnsR (Corynebacterium glutamicum R (JCM 18229)), ORF:3b2fc73c; assay: EMSA; conditions: 20 mM Tris-HCl pH 8.0, 100 mM NaCl, 3 mM MgCl2, 5 mM CaCl2, 0.1 mM EDTA, 0.1 mM DTT, 10% glycerol, 0.15 mg/mL BSA, room temperature, 25 min; 5% PAGE in 0.5x …
T1 sequence: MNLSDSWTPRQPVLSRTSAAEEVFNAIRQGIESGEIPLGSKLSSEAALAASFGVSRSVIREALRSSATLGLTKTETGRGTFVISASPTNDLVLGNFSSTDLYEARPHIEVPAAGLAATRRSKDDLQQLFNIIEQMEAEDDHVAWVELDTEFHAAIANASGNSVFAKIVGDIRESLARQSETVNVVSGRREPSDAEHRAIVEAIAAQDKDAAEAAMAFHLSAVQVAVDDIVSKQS

[2] = target: T2, AnsR (Corynebacterium glutamicum, UniProt A0AB72VEC9); assay: EMSA, release of promoter DNA from His-tagged AnsR; conditions: effector abolishing operator DNA binding; […] L-Asn preincubated […] min; pH […]; room temperature
T2 construct: gene cgR_2807; His-tagged (pColdI, plasmid pCRC667), E. coli BL21(DE3), Ni-NTA; annotated start codon is wrong, true start is the ATG 12 nt downstream
T2 sequence (A0AB72VEC9 5-238 limits assumed): T1 sequence

With “GTTCATGGTGAACATCATGCATTGTGATGCACCTTACGTCAAGGACTTCTTGTTAAGTGATTCTCTTTGTGCAGGTTATGGCAATAAAAAGAACCTGCCCCGAAAAGGGAACAGGCTCTTTTTTCGGTAAGGGTTAAGCCAATGAAGCAAGTCCGAACATTGCGTAAGCCATGATGAAACCAACGATGGCAATACAGGTCTGGTTCACGGTCCAG (double strand) [probe -209 to +6]” the binding [1] was “no binding”.

In the case of NC(=O)C[C@H](N)C(=O)O [L-Asn], the “EMSA, release of promoter DNA from His-tagged AnsR” value [2] is reported as “L-Asn inhibited the binding of AnsR to the site”.
